The record followed here is patent US20110052599A1.

This assay deals with TrkB receptor expressed in mouse oocytes (mouse) (UniProt P15209). Nature of the assay: cell-based or functional assay.

The substance “recombinant human BDNF (Pepro-Tech, Rocky Hill, N.J.) (from UniProt P23560 19-247) (ligand)” returned a proportion of MII oocytes that developed into blastocyst-stage embryos of 5 fold; a proportion of MII oocytes that developed into two-cell stage embryos of 2 fold; a proportion of oocytes showing first polar body extrusion (MII-stage oocytes), 3 ng/ml BDNF with 5% FBS of more than 2 fold.
